Source: patent US20120252730A1, “PLATELET AGGREGATION INHIBITORS” (UNIVERSITY OF CHICAGO, priority 2009, published 2012)
Ends that are not written are not given here. maleimide monolayer = not defined here

Target: T1, human αIIbβ3 integrin on transfected CHO K1 cells (human, UniProt P08514 32-1039; P05106 27-788)
T1 construct: whole, on cells; CHO K1 cells transfected with human αIIb and β3 cDNA; about 30% of the cells expressed the receptor; also called platelet receptor; platelet integrin
Assay: adhesion of αIIbβ3 CHO K1 cells to the peptide monolayer, 300 µM cRGDFG present
Method: For cell adhesion assays mediated by Ac-GXGDSC (SEQ ID NO: 26), αIIbβ3 CHO K1 cells were incubated on a 5×4 circle (1 mm diameter) array for 1 hour with serum-free F-12K medium supplemented with cRGDFG (SEQ ID NO: 12) (300 μM) and 1× penicillin/streptomycin, followed by media exchange to F-12K medium supplemented with 10% FBS, 1× penicillin/streptomycin and cRGDFG (SEQ ID NO: 12) (300 μM. The substrates were washed with warm PBS, and adherent cells were immediately fixed and permeabilized with 4% formaldehyde and 0.5% Triton-X for 30 minutes. Fixed cells were stained with DAPI, visualized and photographed with a 20× objective as described. The number of adherent cells per field of view was counted using Image J software. Cells were counted in at least three fields for each circle, and each experiment was repeated 3 times. The degree of adhesion is reported as a percentage of cells that adhere relative to control experiments with the peptide Ac-GRGDSC (SEQ ID NO: 28).
CHO K1 cells were used that were transfected with the αIIbβ3 receptor, as described previously (Salsmann et al., 2005). Cells were transfected with pcDNA3.1 vectors that coded for αIIb and β3 using FuGENE6 and analyzed by FACS after labeling with the PAC-1 (anti-αIIbβ3) and H-96 (anti-β3) antibodies. Approximately 30% of the cells expressed the receptor (FIG. 2A). Because the CHO K1 cells also express αv and α5 integrins on their surfaces, adhesion experiments were performed in the presence of the cyclic peptide cRGDFG (SEQ ID NO: 12), where F is a D amino acid. […] Treatment of transfected cells with both the cyclic peptide inhibitor and the PAC-1 antibody, however, prevented cell adhesion to the monolayer (FIG. 2F).

binding result	Binder
binds	AGDVC(maleimide monolayer)-NH2 (not fully specified; reading uncertain, also called 0.5% AGDVC SAM) [AGDVC (SEQ ID NO: 17), immobilized on a self-assembled monolayer]
no binding	GGRDGSC(maleimide monolayer)-NH2 (reading uncertain, Control; also called 0.5% GGRDGSC) [GGRDGSC (SEQ ID NO: 70), scrambled peptide immobilized on a self-assembled monolayer]
binds	QAGDVC-NH2 (not fully specified (residue 6); also: C-terminal Cys thiol linked to maleimide of monolayer, also called 0.5% QAGDVC SAM) [QAGDVC (SEQ ID NO: 16), immobilized on a self-assembled monolayer]
binds	KQAGDVC(maleimide monolayer)-NH2 (reading uncertain, also called 0.5% KQAGDVC SAM) [KQAGDVC (SEQ ID NO: 14), immobilized on a self-assembled monolayer]
no binding	GDVC(maleimide monolayer)-NH2 (reading uncertain, also called 0.5% GDVC SAM) [GDVC (SEQ ID NO: 18), immobilized on a self-assembled monolayer]
no binding	KQAGC-NH2 (not fully specified (residue 5); also: C-terminal Cys thiol linked to maleimide of monolayer, also called 0.5% KQAGC SAM) [KQAGC (SEQ ID NO: 20), immobilized on a self-assembled monolayer]
binds	KQAGDC-NH2 (not fully specified (residue 6); also: C-terminal Cys thiol linked to maleimide of monolayer, also called 0.5% KQAGDC SAM) [KQAGDC (SEQ ID NO: 19), immobilized on a self-assembled monolayer]
no binding	HHLGGAC(maleimide monolayer)-NH2 (reading uncertain, also called 0.5% HHLGGAC SAM) [HHLGGAC (SEQ ID NO: 13), immobilized on a self-assembled monolayer]
no binding	GHHLGGADQAGKVC-NH2 (not fully specified (residue 14); also: C-terminal Cys thiol linked to maleimide of monolayer, Control) [GHHLGGADQAGKVC (SEQ ID NO: 71), scrambled peptide immobilized on a self-assembled monolayer]
no binding	GGAKQAC(maleimide monolayer)-NH2 (reading uncertain, also called 0.5% GGAKQAC SAM) [GGAKQAC (SEQ ID NO: 15), immobilized on a self-assembled monolayer]
